Target: the molecule itself
Assay: crystal structure

B1: Saccharomyces cerevisiae alcohol dehydrogenase I (enzyme, UniProt P00330 1-348, looked up)
chain: MSIPETQKGVIFYESHGKLEYKDIPVPKPKANELLINVKYSGVCHTDLHAWHGDWPLPVKLPLVGGHEGAGVVVGMGENVKGWKIGDYAGIKWLNGSCMACEYCELGNESNCPHADLSGYTHDGSFQQYATADAVQAAHIPQGTDLAQVAPILCAGITVYKALKSANLMAGHWVAISGAAGGLGSLAVQYAKAMGYRVLGIDGGEGKEELFRSIGGEVFIDFTKEKDIVGAVLKATDGGAHGVINVSVSEAAIEASTRYVRANGTTVLVGMPAGAKCCSDVFNQVVKSISIVGSYVGNRADTREALDFFARGLVKSPIKVVGLSTLPEIYEKMEKGQIVGRYVVDTSK
modifications: disulfide bond between Cys-277 residues of the two subunits of a dimer
stoichiometry N: 4 subunits per oligomer
